# Test results from patent publication US20250161428A1, “PREVENTING/TREATING PSEUDOMONAS AERUGINOSA INFECTION” (priority 2022, published 2025).
# B1: 1B1: mouse IgM monoclonal antibody to the A-PS terminus; VH SEQ ID NO: 4, VL SEQ ID NO: 8 (antibody, V domains shown)
# VH: DVKLVESGGGLVKVGGSLKISCAASGFPFSDYYMAWVGQTPEKRLELVAAINGDGGTTYYPDTVKGRFIISRDNAKNTLYLQMSSLRSEDTALYYCVRGRRITGTGAIDYWGQGTSVTVSS
# VL: QIFLTQSPVILSASPGEKVTMTCSATSNISYMYRYQQKPGSSPKPWIYGTSNLASRVPARFSGSGSGTSYSLTISNMEAEDAATYYCQIYHSYPYTFGGGTKLEIK
# B2: 3C4: mouse IgG2b monoclonal antibody to the A-PS terminus; VH SEQ ID NO: 22, VL SEQ ID NO: 26 (antibody, V domains shown)
# VH: EVKLVESGGGLVQPGGSLRLSCATSGFTFTDYYMSWVRQPPGKALEWLGFIRNKANGYTTEYSASVKGRFTISRDNSQSILYLQMNTLRAEDSATYYCTRAIYYGYDGFAYWGQGTLVTVSA
# VL: DAVMTQTPLSLPVSLGDQASISCRSSQSLENSNGNTYLNWYLQKPGQSPQLLIYRVSNRFSGVLDRFSGSGSGTDFTLKISRVEAEDLGVYFCLQVTHVPFTFGSGTKLEIK
# Tests used:
# [1] = tested on: purified LPS antigens of P. aeruginosa strains; assay: ELISA binding of mAbs to purified LPS
# Experimental: (§1) ELISA: The binding of anti-P. aeruginosa A-band terminal epitope mAbs and polyclonal sera to BSA conjugates, purified LPS and to whole cells was evaluated by ELISA as described previously.
# [2] = tested on: killed whole cells of P. aeruginosa strains; assay: ELISA binding of mAbs to killed whole cells; conditions: for range of P. aeruginosa strains recognised: summary statement, serotype strains and clinical isolates
# Experimental: FIGS. 11A, 11B, and 11C show ELISA analysis of binding of 1B1 (FIG. 11A), 3B8 (FIG. 11B), and 3C4 (FIG. 11C) purified monoclonal antibodies (mAbs) (all at 100 μg/ml) to killed whole cells of P. aeruginosa strains NRCC #'s 6678, 6668-70, 6954-60 and negative control strains M. catarrhalis 6541 and N. meningitidis 6263 (see Table 1 for full details of strains).
# as §1
# purified PAO1 LPS = assay: mAb competition ELISA; assay type: binding, P. aeruginosa; conditions: PAO1 LPS coated plates; 3C4 at 62.5 μg/ml
# Experimental: (§2) The plate was washed and mAb 3C4 was added at a constant concentration (62.5 μg/ml). A secondary mAb specific for mAb 3C4 was added and absorbance was measured after a colour reagent was added (line with square markers). The absorbance obtained when 3C4 was added to the plate without 1B1 competition is shown by the line with a triangle marker.
# as §2, with “to” for “to the”, “3B8” for “1B1”
# mAb competition ELISA: Wells of Nunc Maxisorp EIA plates were coated with 1 μg of P. aeruginosa LPS in PBS overnight at 4° C. and then brought to RT before use. Plates were blocked with 1% BSA-PBS for 1 h at RT, and then wells were washed with PBS-T. One mAb (1B1 or 3B8) was titrated and added to the plate for 1 h at RT. Following washing with PBS-T, the second mAb (3C4) was added at a pre-determined concentration and allowed to incubate for 1 h at RT. Following washing with PBS-T, AP-labeled goat anti-mouse IgG2b (Southern Biotech) specific for mAb 3C4, diluted 1:250 in 1% BSA-PBS was added for 1 h at RT. The plates were then washed with PBS-T and developed with Phosphatase Substrate System (Kirkegaard and Perry Laboratories). After 60 min absorbance was measured at 405 nm using a microtiter plate reader.
Molecule,recognition of purified LPS from A-band locus mutants PAO1 (wzy::Gm)(Δpa5457) and PAO1 (wzy::Gm)(Δpa5458) [1],"cross reactivity to a set of clinical isolates ([2]; killed whole cells, purified mAbs at 100 μg ml^−1)",cross reactivity to killed whole cells of A-band locus mutants and ATCC type strains of common clinical serotypes ([2]; purified mAbs at 100 μg/ml),range of P. aeruginosa strains recognised [2],epitope relation in competition ELISA with mAb 3C4 (purified PAO1 LPS)
B1,could recognise,broad cross reactivity,the only mAb that was cross reactive,majority of P. aeruginosa strains tested were recognised,recognised a unique epitope compared to 3C4
B2,–,–,–,recognition restricted to the wt serotype 5 strains PAO1 BAA-47 and 5937,recognised similar overlapping epitopes
